In series [1] the target is T1, lamin A/C 250-400 fragment (C-terminal part of coil 2), wild type, tag-free (human, UniProt P02545 250-400).
T1 sequence (looked up): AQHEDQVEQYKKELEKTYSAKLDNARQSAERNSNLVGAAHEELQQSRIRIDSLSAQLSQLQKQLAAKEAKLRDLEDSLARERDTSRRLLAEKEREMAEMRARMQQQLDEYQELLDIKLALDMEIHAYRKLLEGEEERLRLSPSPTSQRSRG
In words: pull-down.

The target in series [2] is T2, His-tagged lamin A/C 250-400 fragment, L362C (human, UniProt P02545 250-400, L362C).
T2 sequence (looked up): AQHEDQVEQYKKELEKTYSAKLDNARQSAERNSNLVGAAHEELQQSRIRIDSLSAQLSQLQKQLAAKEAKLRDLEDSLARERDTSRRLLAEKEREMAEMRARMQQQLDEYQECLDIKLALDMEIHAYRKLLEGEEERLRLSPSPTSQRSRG
Description: pull-down.

Series [3] has as its target T3, His-tagged lamin A/C 250-400 fragment, wild type (human, UniProt P02545 250-400).
T3 sequence (looked up): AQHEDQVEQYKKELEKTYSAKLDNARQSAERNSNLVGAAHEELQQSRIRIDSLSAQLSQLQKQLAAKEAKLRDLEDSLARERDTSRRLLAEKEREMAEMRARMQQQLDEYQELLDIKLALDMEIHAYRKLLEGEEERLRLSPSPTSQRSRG
In words: pull-down.

For series [4], the target named is T4, lamin A/C 250-400 fragment, Y267C, tag-free (human, UniProt P02545 250-400, Y267C).
T4 sequence (looked up): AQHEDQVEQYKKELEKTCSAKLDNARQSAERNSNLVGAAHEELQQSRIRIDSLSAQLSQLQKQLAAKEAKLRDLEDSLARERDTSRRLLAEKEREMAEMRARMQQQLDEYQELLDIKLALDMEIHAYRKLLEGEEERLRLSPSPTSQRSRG
Description: pull-down.

Series [5] has as its target T5, lamin A/C 250-400 fragment, K316C, tag-free (human, UniProt P02545 250-400, K316C).
T5 sequence (looked up): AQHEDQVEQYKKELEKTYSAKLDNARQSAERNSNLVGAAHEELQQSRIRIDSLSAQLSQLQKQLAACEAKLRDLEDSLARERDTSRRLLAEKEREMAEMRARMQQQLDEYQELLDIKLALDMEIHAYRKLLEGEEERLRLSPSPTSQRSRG
Description: pull-down.

Series [6] deals with the molecule itself.

B1: His-tagged lamin A/C 1-125 fragment, I63S (domain or fragment, human, UniProt P02545 1-125, looked up)
chain: METPSQRRATRSGAQASSTPLSPTRITRLQEKEDLQELNDRLAVYIDRVRSLETENAGLRLRSTESEEVVSREVSGIKAAYEAELGDARKTLDSVAKERARLQLELSKVREEFKELKARNTKKEG
B1: the binding result in series [1] is recorded as “binds”.

B2: lamin A/C 1-125 fragment, wild type, prey of Fig. 6B (domain or fragment, human, UniProt P02545 1-125, looked up)
chain: METPSQRRATRSGAQASSTPLSPTRITRLQEKEDLQELNDRLAVYIDRVRSLETENAGLRLRITESEEVVSREVSGIKAAYEAELGDARKTLDSVAKERARLQLELSKVREEFKELKARNTKKEG
As to B2, the binding result in series [2] and in series [3] was “binds” in each case.

B3: His-tagged lamin A/C 1-125 fragment, L59R (domain or fragment, human, UniProt P02545 1-125, looked up)
chain: METPSQRRATRSGAQASSTPLSPTRITRLQEKEDLQELNDRLAVYIDRVRSLETENAGRRLRITESEEVVSREVSGIKAAYEAELGDARKTLDSVAKERARLQLELSKVREEFKELKARNTKKEG
For the molecule B3, in series [1], the binding result is “binds”.

B4: His-tagged lamin A/C 1-125 fragment, Y45C (domain or fragment, human, UniProt P02545 1-125, looked up)
chain: METPSQRRATRSGAQASSTPLSPTRITRLQEKEDLQELNDRLAVCIDRVRSLETENAGLRLRITESEEVVSREVSGIKAAYEAELGDARKTLDSVAKERARLQLELSKVREEFKELKARNTKKEG
With B4, in series [1], the binding result is listed as “binds”.

B5: His-tagged lamin A/C 1-125 fragment, wild type (domain or fragment, human, UniProt P02545 1-125, looked up)
chain: METPSQRRATRSGAQASSTPLSPTRITRLQEKEDLQELNDRLAVYIDRVRSLETENAGLRLRITESEEVVSREVSGIKAAYEAELGDARKTLDSVAKERARLQLELSKVREEFKELKARNTKKEG
For B5, the binding result in series [1], in series [4] and in series [5] was “binds” throughout.

B6: His-tagged lamin A/C 1-125 fragment, L35V (domain or fragment, human, UniProt P02545 1-125, looked up)
chain: METPSQRRATRSGAQASSTPLSPTRITRLQEKEDVQELNDRLAVYIDRVRSLETENAGLRLRITESEEVVSREVSGIKAAYEAELGDARKTLDSVAKERARLQLELSKVREEFKELKARNTKKEG
Consider B6, for which the binding result in series [1] is on record as “binds”.

B7: His-tagged lamin A/C 1-300 fragment, wild type (domain or fragment, human, UniProt P02545 1-300, looked up)
chain: METPSQRRATRSGAQASSTPLSPTRITRLQEKEDLQELNDRLAVYIDRVRSLETENAGLRLRITESEEVVSREVSGIKAAYEAELGDARKTLDSVAKERARLQLELSKVREEFKELKARNTKKEGDLIAAQARLKDLEALLNSKEAALSTALSEKRTLEGELHDLRGQVAKLEAALGEAKKQLQDEMLRRVDAENRLQTMKEELDFQKNIYSEELRETKRRHETRLVEIDNGKQREFESRLADALQELRAQHEDQVEQYKKELEKTYSAKLDNARQSAERNSNLVGAAHEELQQSRIRID
As for B7, in series [6], the stoichiometry N (commonly a count of units in the complex or per binding partner) is 2.

B8: His-tagged lamin A/C 1-300 fragment, Y45C (domain or fragment, human, UniProt P02545 1-300, looked up)
chain: METPSQRRATRSGAQASSTPLSPTRITRLQEKEDLQELNDRLAVCIDRVRSLETENAGLRLRITESEEVVSREVSGIKAAYEAELGDARKTLDSVAKERARLQLELSKVREEFKELKARNTKKEGDLIAAQARLKDLEALLNSKEAALSTALSEKRTLEGELHDLRGQVAKLEAALGEAKKQLQDEMLRRVDAENRLQTMKEELDFQKNIYSEELRETKRRHETRLVEIDNGKQREFESRLADALQELRAQHEDQVEQYKKELEKTYSAKLDNARQSAERNSNLVGAAHEELQQSRIRID
For B8, the “stoichiometry N” value in series [6] is 2.

B9: His-tagged lamin A/C 1-300 fragment, L35V (domain or fragment, human, UniProt P02545 1-300, looked up)
chain: METPSQRRATRSGAQASSTPLSPTRITRLQEKEDVQELNDRLAVYIDRVRSLETENAGLRLRITESEEVVSREVSGIKAAYEAELGDARKTLDSVAKERARLQLELSKVREEFKELKARNTKKEGDLIAAQARLKDLEALLNSKEAALSTALSEKRTLEGELHDLRGQVAKLEAALGEAKKQLQDEMLRRVDAENRLQTMKEELDFQKNIYSEELRETKRRHETRLVEIDNGKQREFESRLADALQELRAQHEDQVEQYKKELEKTYSAKLDNARQSAERNSNLVGAAHEELQQSRIRID
As to B9, in series [6], the “stoichiometry N” value was found to be 2.

B10: His-tagged lamin A/C 1-300 fragment, I63S (domain or fragment, human, UniProt P02545 1-300, looked up)
chain: METPSQRRATRSGAQASSTPLSPTRITRLQEKEDLQELNDRLAVYIDRVRSLETENAGLRLRSTESEEVVSREVSGIKAAYEAELGDARKTLDSVAKERARLQLELSKVREEFKELKARNTKKEGDLIAAQARLKDLEALLNSKEAALSTALSEKRTLEGELHDLRGQVAKLEAALGEAKKQLQDEMLRRVDAENRLQTMKEELDFQKNIYSEELRETKRRHETRLVEIDNGKQREFESRLADALQELRAQHEDQVEQYKKELEKTYSAKLDNARQSAERNSNLVGAAHEELQQSRIRID
On to B10, for which, in series [6], the “stoichiometry N” value turned out to be 2.

B11: His-tagged lamin A/C 1-300 fragment, L59R (domain or fragment, human, UniProt P02545 1-300, looked up)
chain: METPSQRRATRSGAQASSTPLSPTRITRLQEKEDLQELNDRLAVYIDRVRSLETENAGRRLRITESEEVVSREVSGIKAAYEAELGDARKTLDSVAKERARLQLELSKVREEFKELKARNTKKEGDLIAAQARLKDLEALLNSKEAALSTALSEKRTLEGELHDLRGQVAKLEAALGEAKKQLQDEMLRRVDAENRLQTMKEELDFQKNIYSEELRETKRRHETRLVEIDNGKQREFESRLADALQELRAQHEDQVEQYKKELEKTYSAKLDNARQSAERNSNLVGAAHEELQQSRIRID
As to B11, the “stoichiometry N” value in series [6] amounted to 2.

These data come from publication doi:10.1101/2020.09.29.317933 (bioRxiv, 2020).
